Key:
[1] = biological target: αvβ3 and αvβ5 integrins together on human cells (M21, A375S2, HUVEC) (human) (UniProt P06756)
[2] = biological target: αVβ3 integrin on human cells (human) (UniProt P06756)
[3] = biological target: αVβ3 integrin on human cells (human) (UniProt P06756); remark: listed apart in the source
[4] = biological target: αVβ3 integrin on human cells (human) (UniProt P06756); assay: binding of radiolabelled LM609 to A375S2 cells, Bmax, n = 2
[5] = biological target: αVβ5 integrin on human cells (human) (UniProt P06756)
[6] = biological target: αVβ5 integrin on human cells (human) (UniProt P06756); remark: listed apart in the source
[7] = biological target: αVβ5 integrin on human cells (human) (UniProt P06756); assay: binding of radiolabelled P1F6 to M21 cells, Bmax, n = 2
[8] = biological target: αVβ5 integrin on human cells (human) (UniProt P06756); assay: binding of radiolabelled P1F6 to HT-29 cells, Bmax, n = 1
[9] = biological target: αVβ5 integrin on human cells (human) (UniProt P06756); assay: binding of radiolabelled P1F6 to A375S2 cells, Bmax, n = 4
[10] = biological target: human αVβ3 integrin, purified (human) (UniProt P06756); assay: saturation binding on αvβ3 coated plate (ELISA), non-linear regression, n = 6
[11] = biological target: human αVβ3 integrin, purified (human) (UniProt P06756); assay: ELISA on αVβ3-coated plates, fifty percent maximal binding

Human IgG (polyclonal serum or antibody)
Adhesion (%) of HUVEC to vitronectin (% of adhesion without antibody) [1]: 96.3

LM609 (antibody)
Adhesion (%) of HUVEC to fibrin (% of adhesion without antibody) [2]: 48.1 | Adhesion (%) of HUVEC to fibrinogen (% of adhesion without antibody) [2]: 14.3 | Adhesion (%) of HUVEC to gelatin (% of adhesion without antibody) [2]: 36.5 | Adhesion (%) of HUVEC to vitronectin (% of adhesion without antibody) [2]: 26.3 | Adhesion (%) of A375S.2 cells to fibrin (% of adhesion without antibody) [3]: 50 | Adhesion (%) of A375S.2 cells to fibrinogen (% of adhesion without antibody) [3]: 14 | Adhesion (%) of A375S.2 cells to gelatin (% of adhesion without antibody) [3]: 25.2 | Adhesion (%) of A375S.2 cells to vitronectin (% of adhesion without antibody) [3]: 42.1 | Receptors per cell (receptors per cell) [4]: 300000

P1F6 (antibody)
Adhesion (%) of HUVEC to vitronectin (% of adhesion without antibody) [5]: 39.8 | Adhesion (%) of A375S.2 cells to vitronectin (% of adhesion without antibody) [6]: 28.5 | Receptors per cell (receptors per cell) [7]: 44000 | Receptors per cell (receptors per cell) [8]: 73000 | Receptors per cell (receptors per cell) [9]: 70000

ReoPro (Fab)
Kd [10]: 0.25 nM

c7E3 IgG (antibody)
EC50 [11]: 0.07 µg/mL
